Test results as given in patent US20220064327A1 (KYMAB, published 2022).
Where a chain is given by its changes, count along the chain named.

Experiments:
human factor IX [1] = molecular target: T1, human factor IX (human, UniProt P00740 47-461, 12 glutamic acid residues of the GLA domain are post-translationally γ-carboxylated); assay: SPR (Biacore 8K), antibody captured on anti-human IgG Fc CM4 chip, human FIX injected alone as analyte (10 µM, 180 s per Example 11) [i), B(i]
T1 construct: Zymogen used as analyte in SPR, reconstituted at 1 mg/ml; also called FIX; Human FIX (MW ~55 KDa)
Protocol: (§1) The binding kinetics of the purified bispecific antibody was compared to an isotype control (ISTC). […] FIG. 21A.
(§2) Bispecific antibody (ligand), which had been purified by Protein A capture followed by ion exchange chromatography, was captured on to the anti-human IgG Fc CM4 surface at approximately 2 μg/ml. The ligand was injected at 10 μg/ml for 60 seconds at 10 μl/min in one active channel. The run was performed at 25° C. using neutral pH HBS-P 1×+CaCl₂ 2.5 mM as running buffer.

human factor X [2] = molecular target: T2, human factor X (human, UniProt P00742 41-179; P00742 183-488); assay: SPR, bispecific captured on anti-human IgG Fc, FIX then FX injected
T2 construct: Zymogen used as analyte in SPR; also called FX; Human FX (MW ~58 KDa)
Protocol: as §1, §2

[3] = molecular target: human FIX and human FX mixed 1:1 (10 µM 10 µM); assay: SPR, bispecific captured on anti-human IgG Fc, second injection of a 1:1 mixture of FIX and FX
human factor X [4] = molecular target: T2, human factor X; assay: cell-based or functional assay
human factor IX [5] = molecular target: T1, human factor IX; assay: SPR, IgG captured on anti-human IgG Fc, human FIX as analyte
Protocol: (§3) SPR was used to determine the binding affinity (KD) to FIX or FX respectively, the kinetic constants on-rate (kₒₙ) and off-rate (koff). Analyses was performed using a Biacore 8K (GE Healthcare) system.
(§4) Monospecific antibodies (referred as ligand) which had been purified on Protein A were captured onto the anti-human IgG Fc CM4 surface at approximately 2 μg/ml. The ligands were injected for 60 seconds at 10 μl/min in all the active channels of all 8 flow channels. The run was performed at 25° C. using neutral pH HBS-P 1X+CaCl₂ 2.5 mM as running buffer.
(§5) Human FIX (MW ˜55 KDa) or human FX (MW ˜58 KDa) was reconstituted at 1 mg/ml in the running buffer and used as analyte. The analyte was injected in multiple cycle kinetics (MCK) mode at 3 concentrations (1.5 μM, 500 nM and 166.7 nM) with 120 seconds association phase and 200 seconds (for FIX) or 300 seconds (for FX) dissociation phase, at flow rate […] in both active and reference channels. Three injections of 10 mM Glycine pH 1.5 for 60 sec. at 10 μl/min were used for the regeneration phase.

human factor IX [6] = molecular target: T1, human factor IX; assay: SPR as in Example 10, human FIX as analyte
Protocol: as §4, §5
(§6) Affinity and kinetics of purified anti-FIX and anti-FX antibodies for binding to their respective antigens was determined by SPR as described in Example 10 above.

human factor IX [7] = molecular target: T1, human factor IX; assay: SPR, IgG captured on anti-human IgG Fc, human FIX as analyte; remark: listed apart in the source
human factor X [8] = molecular target: T2, human factor X; assay: SPR, IgG captured on anti-human IgG Fc, human FX as analyte
Protocol: as §3, §4, §5

human factor X [9] = molecular target: T2, human factor X; assay: SPR as in Example 10, human FX as analyte
human factor X [10] = molecular target: T2, human factor X; assay: SPR as in Example 10, human FX as analyte; remark: listed apart in the source
Protocol: as §4, §5, §6

human factor X [11] = molecular target: T2, human factor X; assay: SPR, IgG captured on anti-human IgG Fc, human FX as analyte; remark: listed apart in the source

T1 sequence (P00740 47-461 limits assumed): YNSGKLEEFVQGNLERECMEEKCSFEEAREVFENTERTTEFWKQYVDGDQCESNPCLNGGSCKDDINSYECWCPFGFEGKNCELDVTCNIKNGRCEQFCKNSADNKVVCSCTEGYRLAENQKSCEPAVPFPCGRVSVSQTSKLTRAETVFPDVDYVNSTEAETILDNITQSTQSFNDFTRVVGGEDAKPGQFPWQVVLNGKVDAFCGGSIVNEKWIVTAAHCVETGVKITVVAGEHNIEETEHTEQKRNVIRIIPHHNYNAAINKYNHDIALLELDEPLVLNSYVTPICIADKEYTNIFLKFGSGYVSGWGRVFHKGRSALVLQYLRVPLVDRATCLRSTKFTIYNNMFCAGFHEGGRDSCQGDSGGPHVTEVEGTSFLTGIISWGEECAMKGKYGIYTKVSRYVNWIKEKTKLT
T2 sequence (P00742 41-179, chain 1 of 2): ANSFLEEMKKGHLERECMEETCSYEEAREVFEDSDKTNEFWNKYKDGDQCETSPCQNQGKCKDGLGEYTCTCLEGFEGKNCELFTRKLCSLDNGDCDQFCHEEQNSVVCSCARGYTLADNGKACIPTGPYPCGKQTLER
T2 sequence (P00742 183-488, chain 2 of 2): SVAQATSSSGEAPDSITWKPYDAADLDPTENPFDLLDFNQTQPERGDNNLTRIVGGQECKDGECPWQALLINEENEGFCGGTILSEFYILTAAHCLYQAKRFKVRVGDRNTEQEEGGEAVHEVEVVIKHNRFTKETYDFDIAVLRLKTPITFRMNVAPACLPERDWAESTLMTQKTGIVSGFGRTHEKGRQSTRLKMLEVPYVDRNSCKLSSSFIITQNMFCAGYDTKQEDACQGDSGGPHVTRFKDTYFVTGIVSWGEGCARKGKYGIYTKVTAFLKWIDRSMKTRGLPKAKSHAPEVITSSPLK

B1: FIXxFX bispecific antibody IXAX-0436.0202.0128 (bispecific antibody, human IgG4 S228P, lambda)
heavy 1: EVQLVESGGGFVQPGGSLRLSCAVSGFTFNSYWMSWVRQAPGKGLEWVANINQDGSEKFYVASVKGRFTMSRDNAKKSVYVQMNSLRAEDTAVYYCAREGYSSISYYGMDVWGQGTTVTVSSASTKGPSVFPLAPCSRSTSESTAALGCLVKDYFPEPVTVSWNSGALTSGVHTFPAVLQSSGLYSLSSVVTVPSSSLGTQTYTCNVDHKPSNTKVDKRVESKYGPPCPPCPAPEFLGGPSVFLFPPKPKDTLMISRTPEVTCVVVDVSQEDPEVQFNWYVDGVEVHNAKTKPREEQYNSTYRVVSVLTVLHQDWLNGKEYKCKVSNKGLPSSIEKTISKAKGQPREPQVYTLPPSQEEMTKNQVSLTCLVKGFYPSDIAVEWESNGQPENNYKTTPPVLDSDGSFFLYSKLTVDKSRWQEGNVFSCSVMHEALHNHYTQESLSLSP
heavy 2: QVQLIQSGAEVQKPGASVKVSCKASRYSFTSYYMHWVRQAPGQGLEWMGIINPKSGSTSYAQKFQGRVTMTRDTSTSTVYMELSSLRSEDTAVYYCARDGYGSSSRCLQLWGQGTLVTVSSASTKGPSVFPLAPCSRSTSESTAALGCLVKDYFPEPVTVSWNSGALTSGVHTFPAVLQSSGLYSLSSVVTVPSSSLGTQTYTCNVDHKPSNTKVDKRVESKYGPPCPPCPAPEFLGGPSVFLFPPKPKDTLMISRTPEVTCVVVDVSQEDPEVQFNWYVDGVEVHNAKTKPREEQYNSTYRVVSVLTVLHQDWLNGKEYKCKVSNKGLPSSIEKTISKAKGQPREPQVYTLPPSQKEMTKNQVSLTCLVKGFYPSDIAVEWESNGQPENNYKTTPPVLDSDGSFFLYSKLTVDKSRWQEGNVFSCSVMHEALHNHYTQKSLSLSP
light: SYVLTQPPSVSVAPGETARITCGGDNIGRKSVYWYQQKSGQAPVLVIYYDSDRPSGIPERFSGSNSGNTATLTISRVEAGDEADYYCQVWDGSSDHWVFGGGTKLTVLGQPKAAPSVTLFPPSSEELQANKATLVCLISDFYPGAVTVAWKADSSPVKAGVETTTPSKQSNNKYAASSYLSLTPEQWKSHKSYSCQVTHEGSTVEKTVAPTECS
notes: also called N436 bispecific antibody
Human factor IX [1]
  binding result: binds
Human factor X [2]
  binding result: binds
[3]
  response above that of the anti-FX monospecific antibody (RU): 25 RU

B2: IXAX-1280.0999.0325 (bispecific antibody, human IgG4 S228P, lambda)
heavy 1: B1 heavy 1 with T28R, E57R, S105K
heavy 2: B1 heavy 2 with E10K, Q12K, S28K, S104F, C107L, L108I
light: YVLTQPPSVSVAPGETARITCGGDNIGRKSVYWYQQKSGQAPVLVIYYDSDRPSGIPERFSGSNSGNTATLTISRVEAGDEADYYCQVWDGSSDHWVFGGGTKLTVLGQPKAAPSVTLFPPSSEELQANKATLVCLISDFYPGAVTVAWKADSSPVKAGVETTTPSKQSNNKYAASSYLSLTPEQWKSHKSYSCQVTHEGSTVEKTVAPTECS
Human factor X [4]
  EC50, kinetic FXase assay (FIXa-catalysed activation of FX to FXa, OD405 nm at 600 s): 3.99 nM

B3: NINA-0128 (antibody, V domains shown)
VH: EVQLVESGGGFVQPGGSLRLSCAVSGFTFNSYWMSWVRQAPGKGLEWVANINQDGSEKFYVASVKGRFTMSRDNAKKSVYVQMNSLRAEDTAVYYCAREGYSSSSYYGMDVWGQGTTVTVSS
VL: SYVLTQPPSVSVAPGETARITCGGDNIGRKSVYWYQQKSGQAPVLVIYYDSDRPSGIPERFSGSNSGNTATLTISRVEAGDEADYYCQVWDGSSDHWVFGGGTKLTVL
Human factor IX [5]
  Kd: 198 nM
  koff: 0.0576 s⁻¹
  kon: 292000 M⁻¹ s⁻¹
Human factor IX [6]
  Kd: 359 nM
  koff: 0.0492 s⁻¹
  kon: 137000 M⁻¹ s⁻¹

B4: NINA-0436.0128 (antibody, V domains shown)
VH: B3 VH with S104I
VL: B3 VL
Human factor IX [5]
  Kd: 184 nM
  koff: 0.0453 s⁻¹
  kon: 246000 M⁻¹ s⁻¹
Human factor IX [6]
  Kd: 359 nM
  koff: 0.0523 s⁻¹
  kon: 146000 M⁻¹ s⁻¹

B5: NINA-0438.0128 (antibody, V domains shown)
VH: B3 VH with S104L
VL: B3 VL
Human factor IX [7]
  Kd: 300 nM
Human factor IX [5]
  Kd: 293 nM
  koff: 0.0673 s⁻¹
  kon: 230000 M⁻¹ s⁻¹

B6: NINA-0460.0128 (antibody, V domains shown)
VH: B3 VH with S105Q
VL: B3 VL
Human factor IX [7]
  Kd: 180 nM
Human factor IX [5]
  Kd: 181 nM
  koff: 0.0318 s⁻¹
  kon: 175000 M⁻¹ s⁻¹

B7: NINA-1091.0128 (antibody, V domains shown)
VH: B3 VH with E57R, S103I
VL: B3 VL
Human factor IX [6]
  Kd: 218 nM
  koff: 0.0352 s⁻¹
  kon: 161000 M⁻¹ s⁻¹

B8: NINA-1172.0128 (antibody, V domains shown)
VH: B3 VH with E57R, S104I, S105K
VL: B3 VL
Human factor IX [6]
  Kd: 76.4 nM
  koff: 0.0171 s⁻¹
  kon: 225000 M⁻¹ s⁻¹

B9: NINA-1280.0128 (antibody, V domains shown)
VH: B3 VH with T28R, E57R, S104I, S105K
VL: B3 VL
Human factor IX [6]
  Kd: 52.3 nM
  koff: 0.01 s⁻¹
  kon: 192000 M⁻¹ s⁻¹

B10: TINA-0200.0128 (antibody, V domains shown)
VH: QVQLVQSGAEVKKPGASVKVSCKASRYSFTSYYLHWVRQAPGQGLEWMGIINPKTGDTSYAQKFQGRVTMTRDTSTTTVYMELSSLRSEDTAVYYCARDGYGSSARCLQLWGQGTLVTVSS
VL: B3 VL
notes: Monospecific IgG4PE
Human factor X [8]
  Kd: 1130 nM
  koff: 0.115 s⁻¹
  kon: 103000 M⁻¹ s⁻¹
Human factor X [9]
  Kd: 300 to 3000 nM
Human factor X [10]
  Kd: 2520 nM
  koff: 0.112 s⁻¹
  kon: 44300 M⁻¹ s⁻¹

B11: TINA-0201.0128 (antibody, V domains shown)
VH: B10 VH with V5I, L34M, T55S, D57S, T77S, A105S
VL: B3 VL
notes: Monospecific IgG4PE
Human factor X [8]
  Kd: 579 nM
  koff: 0.0502 s⁻¹
  kon: 86700 M⁻¹ s⁻¹
Human factor X [10]
  Kd: 816 nM
  koff: 0.0482 s⁻¹
  kon: 59000 M⁻¹ s⁻¹

B12: TINA-0202.0128 (antibody, V domains shown)
VH: B10 VH with V5I, K12Q, L34M, T55S, D57S, T77S, A105S
VL: B3 VL
notes: Monospecific IgG4PE
Human factor X [8]
  Kd: 812 nM
  koff: 0.072 s⁻¹
  kon: 88700 M⁻¹ s⁻¹
Human factor X [10]
  Kd: 1380 nM
  koff: 0.0709 s⁻¹
  kon: 51300 M⁻¹ s⁻¹

B13: TINA-0205.0128 (antibody, V domains shown)
VH: B10 VH with L34M, T55S, T77S, S84N
VL: B3 VL
notes: Monospecific IgG4PE
Human factor X [11]
  Kd: 100 nM
Human factor X [8]
  Kd: 1360 nM
  koff: 0.0853 s⁻¹
  kon: 62600 M⁻¹ s⁻¹

B14: TINA-0213.0128 (antibody, V domains shown)
VH: B10 VH with P14T, L34M, T55S, D57T, T77S, A105S
VL: B3 VL
notes: Monospecific IgG4PE
Human factor X [11]
  Kd: 1400 nM
Human factor X [8]
  Kd: 1370 nM
  koff: 0.133 s⁻¹
  kon: 96900 M⁻¹ s⁻¹

B15: TINA-0638.0128 (antibody, V domains shown)
VH: B10 VH with V5I, L34M, T55S, D57S, T77S, A105S, Q109M
VL: B3 VL
notes: Monospecific IgG; position is IMGT numbering, not a count on the entry
Human factor X [9]
  Kd: 300 to 3000 nM
Human factor X [10]
  Kd: 333 nM
  koff: 0.0232 s⁻¹
  kon: 69900 M⁻¹ s⁻¹
